According to patent US20200155602A1 (IMMATICS BIOTECHNOLOGIES, published 2020):

Each binder was assayed against T1, HLA-A*02:01 (human) (assay: UV-ligand exchange, anti-b2m ELISA; grade of peptide exchange yield (>10% = +; >20% = ++; >50 = +++; >75% = ++++)).
T1 construct: Peptide-receptive HLA-A*02:01 monomer obtained by UV cleavage of a UV-sensitive ligand; captured on streptavidin plates; also called peptide-receptive MHC molecules; MHC class I
Source text: Candidate peptides for T cell based therapies according to the present invention were further tested for their MHC binding capacity (affinity). The individual peptide-MHC complexes were produced by UV-ligand exchange, where a UV-sensitive peptide is cleaved upon UV-irradiation, and exchanged with the peptide of interest as analyzed. Only peptide candidates that can effectively bind and stabilize the peptide-receptive MHC molecules prevent dissociation of the MHC complexes. To determine the yield of the exchange reaction, an ELISA was performed based on the detection of the light chain (β2m) of stabilized MHC complexes. The assay was performed as generally described in Rodenko et al. (Rodenko et al., 2006).
96 well MAXISorp plates (NUNC) were coated over night with 2 ug/ml streptavidin in PBS at room temperature, washed 4× and blocked for 1 h at 37° C. in 2% BSA containing blocking buffer. Refolded HLA-A*02:01/MLA-001 monomers served as standards, covering the range of 15-500 ng/ml. Peptide-MHC monomers of the UV-exchange reaction were diluted 100-fold in blocking buffer. Samples were incubated for 1 h at 37° C., washed four times, incubated with 2 ug/ml HRP conjugated anti-β2m for 1 h at 37° C., washed again and detected with TMB solution that is stopped with […]. Absorption was measured at 450 nm. Candidate peptides that show a high exchange yield (preferably higher than 50%, most preferred higher than 75%) are generally preferred for a generation and production of antibodies or fragments thereof, and/or T cell receptors or fragments thereof, as they show sufficient avidity to the MHC molecules and prevent dissociation of the MHC complexes.

Binder | peptide exchange yield [%]
YVMESMTYL | > 75
ALEEANADLEV | 50 to 75
FLFPAFLTA | > 75
SLFPYVVLI | > 75
SLDGNPLAV | > 75
YIDPYKLLPL | 50 to 75
ALASAPTSV | > 75
ILFDEVLTFA | > 75
SLRAFLMPI | 20 to 50
VLYGDVEEL | 50 to 75
GLHQDFPSVVL | 50 to 75
AQLNIGNVLPV | > 75
GLYGIKDDVFL | > 75
VLAENPDIFAV | 50 to 75
QLLQYVYNL | > 75
ALMAGCIQEA | > 75
QLIEKITQV | 50 to 75
SLQERQVFL | 50 to 75
ALPEPSPAA | 50 to 75
LMAPAPSTV | 50 to 75
VLDEGLTSV | > 75
STASAITPSV | 20 to 50
TLNDGVVVQV | > 75
MLFENMGAYTV | > 75
